From article PMC6746701, “A phyB-PIF1-SPA1 kinase regulatory complex promotes photomorphogenesis in Arabidopsis” (Nature Communications, 2019)

Target: the molecule itself
Test: native gel or EMSA; 5 µg holoprotein on a native 6% PAGE gel, 4 °C, 100 V, 3 h, Coomassie; dimerisation

| Protein | binding result |
| --- | --- |
| phyB-GFP FL holoprotein (Pichia pastoris purified) (receptor, Arabidopsis, UniProt P14713 1-1172, looked up, holoprotein (chromophore bound), phytochrome B (phyB), Arabidopsis, full length; the host named for this assay is Pichia pastoris; source: Pichia pastoris, purified; not shown: GFP, C-terminal, kept) MVSGVGGSGGGRGGGRGGEEEPSSSHTPNNRRGGEQAQSSGTKSLRPRSNTESMSKAIQQYTVDARLHAVFEQSGESGKSFDYSQSLKTTTYGSSVPEQQITAYLSRIQRGGYIQPFGCMIAVDESSFRIIGYSENAREMLGIMPQSVPTLEKPEILAMGTDVRSLFTSSSSILLERAFVAREITLLNPVWIHSKNTGKPFYAILHRIDVGVVIDLEPARTEDPALSIAGAVQSQKLAVRAISQLQALPGGDIKLLCDTVVESVRDLTGYDRVMVYKFHEDEHGEVVAESKRDDLEPYIGLHYPATDIPQASRFLFKQNRVRMIVDCNATPVLVVQDDRLTQSMCLVGSTLRAPHGCHSQYMANMGSIASLAMAVIINGNEDDGSNVASGRSSMRLWGLVVCHHTSSRCIPFPLRYACEFLMQAFGLQLNMELQLALQMSEKRVLRTQTLLCDMLLRDSPAGIVTQSPSIMDLVKCDGAAFLYHGKYYPLGVAPSEVQIKDVVEWLLANHADSTGLSTDSLGDAGYPGAAALGDAVCGMAVAYITKRDFLFWFRSHTAKEIKWGGAKHHPEDKDDGQRMHPRSSFQAFLEVVKSRSQPWETAEMDAIHSLQLILRDSFKESEAAMNSKVVDGVVQPCRDMAGEQGIDELGAVAREMVRLIETATVPIFAVDAGGCINGWNAKIAELTGLSVEEAMGKSLVSDLIYKENEATVNKLLSRALRGDEEKNVEVKLKTFSPELQGKAVFVVVNACSSKDYLNNIVGVCFVGQDVTSQKIVMDKFINIQGDYKAIVHSPNPLIPPIFAADENTCCLEWNMAMEKLTGWSRSEVIGKMIVGEVFGSCCMLKGPDALTKFMIVLHNAIGGQDTDKFPFPFFDRNGKFVQALLTANKRVSLEGKVIGAFCFLQIPSPELQQALAVQRRQDTECFTKAKELAYICQVIKNPLSGMRFANSLLEATDLNEDQKQLLETSVSCEKQISRIVGDMDLESIEDGSFVLKREEFFLGSVINAIVSQAMFLLRDRGLQLIRDIPEEIKSIEVFGDQIRIQQLLAEFLLSIIRYAPSQEWVEIHLSQLSKQMADGFAAIRTEFRMACPGEGLPPELVRDMFHSSRWTSPEGLGLSVCRKILKLMNGEVQYIRESERSYFLIILELPVPRKRPLSTASGSGDMMLMMPY | binds |
| phyB-GFP ΔC holoprotein (Pichia pastoris purified) (domain or fragment, Arabidopsis, UniProt P14713 1-1092, looked up, holoprotein (chromophore bound), phytochrome B (phyB), Arabidopsis, residues 1-1092 (lacks the last 80 amino acids); source: Pichia pastoris, purified; not shown: GFP, C-terminal, kept) MVSGVGGSGGGRGGGRGGEEEPSSSHTPNNRRGGEQAQSSGTKSLRPRSNTESMSKAIQQYTVDARLHAVFEQSGESGKSFDYSQSLKTTTYGSSVPEQQITAYLSRIQRGGYIQPFGCMIAVDESSFRIIGYSENAREMLGIMPQSVPTLEKPEILAMGTDVRSLFTSSSSILLERAFVAREITLLNPVWIHSKNTGKPFYAILHRIDVGVVIDLEPARTEDPALSIAGAVQSQKLAVRAISQLQALPGGDIKLLCDTVVESVRDLTGYDRVMVYKFHEDEHGEVVAESKRDDLEPYIGLHYPATDIPQASRFLFKQNRVRMIVDCNATPVLVVQDDRLTQSMCLVGSTLRAPHGCHSQYMANMGSIASLAMAVIINGNEDDGSNVASGRSSMRLWGLVVCHHTSSRCIPFPLRYACEFLMQAFGLQLNMELQLALQMSEKRVLRTQTLLCDMLLRDSPAGIVTQSPSIMDLVKCDGAAFLYHGKYYPLGVAPSEVQIKDVVEWLLANHADSTGLSTDSLGDAGYPGAAALGDAVCGMAVAYITKRDFLFWFRSHTAKEIKWGGAKHHPEDKDDGQRMHPRSSFQAFLEVVKSRSQPWETAEMDAIHSLQLILRDSFKESEAAMNSKVVDGVVQPCRDMAGEQGIDELGAVAREMVRLIETATVPIFAVDAGGCINGWNAKIAELTGLSVEEAMGKSLVSDLIYKENEATVNKLLSRALRGDEEKNVEVKLKTFSPELQGKAVFVVVNACSSKDYLNNIVGVCFVGQDVTSQKIVMDKFINIQGDYKAIVHSPNPLIPPIFAADENTCCLEWNMAMEKLTGWSRSEVIGKMIVGEVFGSCCMLKGPDALTKFMIVLHNAIGGQDTDKFPFPFFDRNGKFVQALLTANKRVSLEGKVIGAFCFLQIPSPELQQALAVQRRQDTECFTKAKELAYICQVIKNPLSGMRFANSLLEATDLNEDQKQLLETSVSCEKQISRIVGDMDLESIEDGSFVLKREEFFLGSVINAIVSQAMFLLRDRGLQLIRDIPEEIKSIEVFGDQIRIQQLLAEFLLSIIRYAPSQEWVEIHLSQLSKQMADGFAAIRTEFRMACP | binds |
